According to patent publication US20260265360A1, “USE OF ANTI-FAM19A5 ANTAGONISTS FOR TREATING HEARING DISORDERS” (NEURACLE SCIENCE CO., LTD., priority 2023, published 2026):

Assays:
[1] = tested on: inner hair cells of mouse cochlear explants; assay: Promotion of synaptogenesis (CtBP2 puncta); format: cell-based; settings: antibody 1 μM
Protocol: Cochlear explant were cultured in medium consisting of plating media, which consist of Neurobasal media (Invitrogen), 1% N2 supplement, and 10 μg/mL Ampicillin with culture media with additional 1% FBS.
Postnatal day 4-5 (P4-5) C57BL/6 mice were sacrificed for inner ear dissection. Mouse head was bisected, and brain tissue was removed. Cochlea was carefully separated the from the extraneous bones in ice-cold HBSS (5 mM HEPES/1.3 mM CaCl2), 0.9 mM MgCl2, pH 7.4) or External solution (1.2 mM CaCl2), 1 mM MgCl2, 5 mM HEPES in HBSS). Then the stria vascularis and spiral bone plate was removed, and cochlea was cut into two to three sections. […]
Mouse cochlear explant cultures were treated with FAM19A5, FAM19A5 combined with a FAM19A5 antagonist (e.g., described herein, e.g., 1-30 antibody), or a FAM19A5 antagonist (e.g., described herein, e.g., 1-30 antibody) alone at 1 DIV to determine the level of synaptogenesis at 2 DIV by immunostaining CtBP2, a ribbon synapse marker. To quantify the number of CtBP2 puncta of individual inner hair cells, z-stack confocal images were exported in “multi-page” and the number of CtBP2 puncta from each individual inner hair cells were measured using ROI manger and multi-point tool from Fiji (Image J). Number of CtBP2 puncta from five individual inner hair cells were counted per image and 3 z-stack images were measured from each treatment group. […]

[2] = tested on: noise-induced hearing loss mouse model; assay: Noise-induced hearing loss mouse model, first antibody dose one day prior to noise exposure; format: in vivo
Protocol: FIGS. 6A, 6B, 6C, 6D, and 6E show the therapeutic effect of FAM19A5 antagonists on auditory brainstem response (ABR) threshold in a noise-induced hearing loss mouse model. FIG. 6A provides a schematic of the experimental design. As shown, anti-FAM19A5 antibody (1-30) or control human IgG antibody was administered to the mice intravenously once a week (30 mg/kg per dose) for a total of five administrations. The first dose of the antibodies was administered one day before noise exposure. For noise-induced hearing loss induction, the animals were subjected to temporary threshold shift (TTS) of 105 decibels for 30 minutes. ABR (i.e., hearing test) was measured both prior to the initial administration of the antibodies and then at various times after administration. FIGS. 6B, 6C, 6D, and 6E provide comparison of ABR threshold between mice administered with the control human IgG (circle), anti-FAM19A5 antibody (square), or before noise (triangle) at the following time points: (i) before TTS exposure, (ii) 1 day after TTS exposure, (iii) 2 weeks after TTS exposure, (iv) 4 weeks after TTS exposure, and […], respectively. ABR threshold was measured at a frequency ranging from 4 kHz to 64 kHz.
FIGS. 7A, 7B, 7C, and 7D show the therapeutic effect of FAM19A5 antagonists on distortion product […] emission (DPOAE) threshold in a noise-induced hearing loss mouse model. The overall experimental design is the same as that described in FIG. 6A. DPOAE threshold data was measured after antibody administration and: (i) before TTS exposure (FIG. 7A), (ii) 1 day after TTS exposure (FIG. 7B), (iii) 2 weeks after TTS exposure (FIG. 7C), and (iv) 4 weeks after TTS exposure (FIG. 7D). DPOAE threshold was measured at a frequency ranging between about 4 kHz to about 32 kHz.
FIGS. 8A and 8B show the effect of FAM19A5 antagonists on distortion product […] emission (DPOAE) amplitude in a noise-induced hearing loss mouse model. The overall experimental design is the same as that described in FIG. 6A. DPOAE amplitude data was measured after antibody administration at 2 weeks after TTS exposure. FIG. 8A provides a comparison of the average DPOAE amplitude value as a function of different noise level for the following groups: (i) before noise (triangle), (ii) control antibody treated (circle), and (iii) anti-FAM19A5 treated (square). FIG. 8B provides a spectral level profile for each of the groups.
FIGS. 11A and 11B show the effect of FAM19A5 antagonists on ABR I/O function in a noise-induced hearing loss mouse model. The overall experimental design is the same as that described in FIG. 6A. FIG. 11A provides wave I amplitude before noise (left graph) and at 2 weeks after noise (right graph).
FIG. 11B provides wave I amplitude at 4 weeks after noise. For each of FIGS. 11A and 11B, the following groups of animals are shown: (i) control antibody treated (circle) and (ii) anti-FAM19A5 antibody treated (square). For comparison purposes, wave I amplitude before noise exposure is also provided at the 2 weeks and 4 weeks timepoints (“BN”).
FIGS. 12A and 12B provide immunohistochemistry (IHC) analysis of the therapeutic effects of anti-FAM19A5 antibody (1-30) and control human IgG antibody administration in the middle cochlear region 8 weeks after temporary threshold shift (TTS) (i.e., noise induction).
To assess whether the FAM19A5 antagonists described herein can treat hearing loss, a noise-induced hearing loss mouse model was used. Briefly, for hearing loss induction, the animals were exposed to a temporary threshold shift (TTS) of 105 decibels for 30 minutes. An anti-FAM19A5 antibody (1-30 antibody) or a control human IgG antibody was intravenously administered to C57BL/6 mice (8 weeks old) once weekly for 5 total administrations (30 mg/kg per dose). […] To assess the effect on hearing loss, ABR threshold, DPOAE threshold, and/or DPOAE amplitude were measured at various time points (see “hearing test” in FIG. 6A). […]

B1: 1-30: anti-FAM19A5 antibody, de-immunized variant of 3-2; VH SEQ ID NO: 235, VL SEQ ID NO: 240 (antibody, V domains shown)
VH: AVTLDESGGGLQTPGGALRLSCKASGFDFESFNMFWVRQAPGKGLEYVSQISSSEEDENYAPAVKGRATISRDNGQSTLYLQMNSLRAEDTGTYYCAKSSYDCPYGHCSSGVDSAGEIDAWGHGTEVIVSS
VL: ALTQPSSVSANPGETVKITCSGGGSEEEQYYYGWYQQKPGSAPVTLIYQDEERPSDIPSRFSGSTSGSTATLTITGVQAGDEADYYCGSWDSEDEDHFGAGTTLTVL
modifications: Low-PI VH, 1-30 VH, 1-17 VH, 1-32 VH, 4-11 VH, 6-10 VH; 1-30 VL
number of CtBP2 puncta within the inner hair cells vs control human IgG [1]: significant increase
DPOAE amplitude vs control antibody ([2]; 2 weeks after TTS exposure, about 18 kHz frequency): higher DPOAE amplitude
number of ribbon bodies per cell in IHC and OHC vs hIgG ([2]; 8 weeks after TTS): increased number of ribbon bodies per cell
ABR threshold values vs values prior to TTS exposure ([2]; all time points assessed after TTS, 30 mg/kg i.v. weekly x5, first dose one day before noise): comparable to corresponding values prior to the TTS exposure
DPOAE threshold values vs control IgG antibody ([2]; before and 1 day, 2 weeks, 4 weeks after TTS, 30 mg/kg i.v. weekly): no noticeable differences
increase in ABR threshold after TTS exposure, vs control antibody ([2]; day 1 post TTS (105 dB, 30 min), 30 mg/kg i.v. weekly x5, first dose one day before noise): much more dramatic in animals treated with the control antibody
ABR wave I amplitude vs control antibody ([2]; four weeks post noise exposure): noticeable differences were observed
expression of CtBP2 (cochlear ribbon synapse marker) in the IHC vs control antibody ([2]; middle cochlear region, 8 weeks after TTS): noticeable increase
ABR wave I amplitude vs control antibody ([2]; two weeks post noise exposure): noticeable differences were observed
